Measured values as given in patent US20260167721A1 (ABLEXIS, published 2026).

B1: CD3 × CD33-BspAb94 (bispecific antibody)
chain 1: NFMLTQPHSVSESPGKTVTISCTRSSGSIASNYVQWYQQRPGSSPTTVIYEDNQRPSGVPDRFSGSIDSSSNSASLTISGLKTEDEADYYCQSYDSSNRVFGCGTKLTVLGGGGSGGGGSGGGGSGGGGSEVQLVESGGGLVKPGGSLRLSCAASGFTFSSYTMNWVRQAPGKCLEWVSSITTSSSYIYYADSVKGRFTISRDNAKNSLYLQMNSLRAEDTAVYYCARVTFDAFDIWGQGTMVTVSSDKTHTCPPCPAPEFEGGPSVFLFPPKPKDTLMISRTPEVTCVVVDVSHEDPEVKFNWYVDGVEVHNAKTKPREEQYNSTYRVVSVLTVLHQDWLNGKEYKCKVSNKALPASIEKTISKAKGQPREPQVYTLPPCREEMTKNQVSLWCLVKGFYPSDIAVEWESNGQPENNYKTTPPVLDSDGSFFLYSKLTVDKSRWQQGNVFSCSVMHEALHNHYTQKSLSLSPGK
chain 2: EVQLVQSGAEVKKPGSSVKVSCKASGYTITDSNIHWVRQAPGQSLEWIGYIYPYNGGTDYNQKFKNRATLTVDNPTNTAYMELSSLRSEDTAFYYCVNGNPWLAYWGQGTLVTVSSASTKGPSVFPLAPSSKSTSGGTAALGCLVKDYFPEPVTVSWNSGALTSGVHTFPAVLQSSGLYSLSSVVTVPSSSLGTQTYICNVNHKPSNTKVDKRVEPKSCDKTHTCPPCPAPEFEGGPSVFLFPPKPKDTLMISRTPEVTCVVVDVSHEDPEVKFNWYVDGVEVHNAKTKPREEQYNSTYRVVSVLTVLHQDWLNGKEYKCKVSNKALPASIEKTISKAKGQPREPQVCTLPPSREEMTKNQVSLSCAVKGFYPSDIAVEWESNGQPENNYKTTPPVLDSDGSFFLVSKLTVDKSRWQQGNVFSCSVMHEALHNRFTQKSLSLSPGK
chain 3: DIQLTQSPSTLSASVGDRVTITCRASESLDNYGIRFLTWFQQKPGKAPKLLMYAASNQGSGVPSRFSGSGSGTEFTLTISSLQPDDFATYYCQQTKEVPWSFGQGTKVEVKRTVAAPSVFIFPPSDEQLKSGTASVVCLLNNFYPREAKVQWKVDNALQSGNSQESVTEQDSKDSTYSLSSTLTLSKADYEKHKVYACEVTHQGLSSPVTKSFNRGEC
B2: CD3 × CD33-BspAb100 (bispecific antibody)
scFv-Fc: EVQLVESGGGLVKPGGSLRLSCAASGFTFSNYYMNWVRQAPGKCLERVSSISSSSNYIYYADSVKGRFTISRDNAKNSLYLQMNSLRAEDTAVYYCARDRRELPLDYWGQGTVVTVSSGGGGSGGGGSGGGGSGGGGSSYELTQPPSVSVSPGQTARITCSGDALPKKYAYWYQQKSGQAPVLVIYEDSKRPSGIPERFSGSSSGTMATLTISGAQVEDEADYYCYSTDSSGNHWVFGCGTKLTVLGGGGSDKTHTCPPCPAPEFEGGPSVFLFPPKPKDTLMISRTPEVTCVVVDVSHEDPEVKFNWYVDGVEVHNAKTKPREEQYNSTYRVVSVLTVLHQDWLNGKEYKCKVSNKALPASIEKTISKAKGQPREPQVYTLPPCREEMTKNQVSLWCLVKGFYPSDIAVEWESNGQPENNYKTTPPVLDSDGSFFLYSKLTVDKSRWQQGNVFSCSVMHEALHNHYTQKSLSLSPGK
heavy: B1 chain 2
light: B1 chain 3
notes: KiH heterodimer
B3: CD3 × CD33-BspAb101 (bispecific antibody)
scFv-Fc: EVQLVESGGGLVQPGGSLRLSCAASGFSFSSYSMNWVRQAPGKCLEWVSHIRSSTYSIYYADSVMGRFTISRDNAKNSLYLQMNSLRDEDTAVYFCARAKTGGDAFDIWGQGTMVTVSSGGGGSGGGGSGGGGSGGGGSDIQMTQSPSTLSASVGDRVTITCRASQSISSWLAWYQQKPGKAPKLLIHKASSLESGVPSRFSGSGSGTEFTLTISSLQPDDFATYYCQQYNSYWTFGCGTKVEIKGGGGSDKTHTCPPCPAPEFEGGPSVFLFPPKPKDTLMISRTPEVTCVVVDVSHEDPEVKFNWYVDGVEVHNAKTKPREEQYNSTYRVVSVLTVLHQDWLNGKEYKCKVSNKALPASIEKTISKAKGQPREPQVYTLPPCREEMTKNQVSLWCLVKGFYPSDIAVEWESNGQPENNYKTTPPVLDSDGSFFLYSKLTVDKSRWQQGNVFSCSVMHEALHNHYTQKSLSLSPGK
heavy: B1 chain 2
light: B1 chain 3
notes: KiH heterodimer
B4: CD3 × CD33-BspAb98 (bispecific antibody)
scFv-Fc: NFMLTQPHSVSESPGKTVTISCTRSSGSIASNYVQWYQQRPGSSPTTVIYEDNQRPSGVPDRFSGSIDSSSNSASLTISGLKTEDEADYYCQSYDSSNRVFGCGTKLTVLGGGGSGGGGSGGGGSGGGGSEVHLVESGGGLVKPGGSLRLSCAASGFTFSRYSMNWVRQAPGKCLEWVSSISRSSSYIYYADSVKGRFTISRDNAKNSLYLQMNSLRAEDTAVYYCAREPRTLGMDYWGQGILVTVSSGGGGSDKTHTCPPCPAPEFEGGPSVFLFPPKPKDTLMISRTPEVTCVVVDVSHEDPEVKFNWYVDGVEVHNAKTKPREEQYNSTYRVVSVLTVLHQDWLNGKEYKCKVSNKALPASIEKTISKAKGQPREPQVYTLPPCREEMTKNQVSLWCLVKGFYPSDIAVEWESNGQPENNYKTTPPVLDSDGSFFLYSKLTVDKSRWQQGNVFSCSVMHEALHNHYTQKSLSLSPGK
heavy: B1 chain 2
light: B1 chain 3
notes: KiH heterodimer
B5: CD3 × CD33-BspAb97 (bispecific antibody)
chain 1: SYELTQPPSVSVSPGQTARITCSGDALPKKYAYWYQQKSGQAPVLVIYEDSKRPSGIPERFSGSSSGTMATLTISGAQVEDEADYYCYSTDSSGNHWVFGCGTKLTVLGGGGSGGGGSGGGGSGGGGSEVQLVESGGGLVKPGGSLRLSCAASGFTFSNYYMNWVRQAPGKCLERVSSISSSSNYIYYADSVKGRFTISRDNAKNSLYLQMNSLRAEDTAVYYCARDRRELPLDYWGQGTVVTVSSDKTHTCPPCPAPEFEGGPSVFLFPPKPKDTLMISRTPEVTCVVVDVSHEDPEVKFNWYVDGVEVHNAKTKPREEQYNSTYRVVSVLTVLHQDWLNGKEYKCKVSNKALPASIEKTISKAKGQPREPQVYTLPPCREEMTKNQVSLWCLVKGFYPSDIAVEWESNGQPENNYKTTPPVLDSDGSFFLYSKLTVDKSRWQQGNVFSCSVMHEALHNHYTQKSLSLSPGK
chain 2: B1 chain 2
chain 3: B1 chain 3
B6: CD3 × CD33-BspAb96 (bispecific antibody)
chain 1: SYELTQPPSVSVSPGQTARITCSGDALPKKYAYWYQQKSGQAPVLVIYEDSKRPSGIPERFSGSSSGTMATLTISGAQVEDEADYYCYSTDSSGNHSWVFGCGTKLTVLGGGGSGGGGSGGGGSGGGGSEVQLVESGGGLVKPGGSLRLSCAASGFTFSSYSMNWVRQAPGKCLEWVSSVNSRGSYIYYADSVKGRFTISRDNAKDSLYLQMNSLRADDTAVYYCARDRRELLLDYWGQGTLVTVSSDKTHTCPPCPAPEFEGGPSVFLFPPKPKDTLMISRTPEVTCVVVDVSHEDPEVKFNWYVDGVEVHNAKTKPREEQYNSTYRVVSVLTVLHQDWLNGKEYKCKVSNKALPASIEKTISKAKGQPREPQVYTLPPCREEMTKNQVSLWCLVKGFYPSDIAVEWESNGQPENNYKTTPPVLDSDGSFFLYSKLTVDKSRWQQGNVFSCSVMHEALHNHYTQKSLSLSPGK
chain 2: B1 chain 2
chain 3: B1 chain 3
B7: CD3 × CD33-BspAb99 (bispecific antibody)
scFv-Fc: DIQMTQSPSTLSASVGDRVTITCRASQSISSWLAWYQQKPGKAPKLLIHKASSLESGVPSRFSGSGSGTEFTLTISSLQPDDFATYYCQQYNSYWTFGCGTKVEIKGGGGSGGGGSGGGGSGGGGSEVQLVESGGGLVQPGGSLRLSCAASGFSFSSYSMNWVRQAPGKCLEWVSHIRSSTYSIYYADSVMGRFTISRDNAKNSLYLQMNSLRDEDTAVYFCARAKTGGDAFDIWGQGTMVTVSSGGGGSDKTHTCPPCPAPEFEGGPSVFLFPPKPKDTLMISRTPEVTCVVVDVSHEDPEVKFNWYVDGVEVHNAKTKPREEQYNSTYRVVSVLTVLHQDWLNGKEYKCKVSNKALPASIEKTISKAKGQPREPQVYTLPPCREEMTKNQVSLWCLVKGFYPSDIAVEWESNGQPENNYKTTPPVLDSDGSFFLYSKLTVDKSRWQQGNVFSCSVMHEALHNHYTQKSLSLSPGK
heavy: B1 chain 2
light: B1 chain 3
notes: KiH heterodimer
B8: CD3 × CD33-BspAb95 (bispecific antibody)
chain 1: NFMLTQPHSVSESPGKTVTISCTRSSGSIASNYVQWYQQRPGSSPTTVIYEDNQRSSGVPDRFSGSIDSSSNSASLTISGLKTEDEADYYCQSYDRSNRVFGCGTKLTVLGGGGSGGGGSGGGGSGGGGSEVQLVESGGGLVKPGGSLRLSCSASGFTFSTYTMNWVRQAPGKCLEWVSSISKSSSYIYYTDSVKGRFTISRDNAKNSLYLQMNSLRAEDTAVYYCARERRTLAFDIWGQGTMVTVSSDKTHTCPPCPAPEFEGGPSVFLFPPKPKDTLMISRTPEVTCVVVDVSHEDPEVKFNWYVDGVEVHNAKTKPREEQYNSTYRVVSVLTVLHQDWLNGKEYKCKVSNKALPASIEKTISKAKGQPREPQVYTLPPCREEMTKNQVSLWCLVKGFYPSDIAVEWESNGQPENNYKTTPPVLDSDGSFFLYSKLTVDKSRWQQGNVFSCSVMHEALHNHYTQKSLSLSPGK
chain 2: B1 chain 2
chain 3: B1 chain 3

molecular target: T1, human CD3 (TCR/CD3 complex on the cell surface) (human, UniProt P07766 23-207; P04234 22-171; P09693 23-182); experiment: flow cytometry, Jurkat WT gMFI over Jurkat KO gMFI, 1 ug/mL
T1 construct: whole, on cells; Native CD3 on human Pan-T cells or Jurkat wild-type cells; also called CD3 on Pan-T cells; CD3 on Jurkat WT cells
T1 sequence (P07766 23-207, chain 1 of 3): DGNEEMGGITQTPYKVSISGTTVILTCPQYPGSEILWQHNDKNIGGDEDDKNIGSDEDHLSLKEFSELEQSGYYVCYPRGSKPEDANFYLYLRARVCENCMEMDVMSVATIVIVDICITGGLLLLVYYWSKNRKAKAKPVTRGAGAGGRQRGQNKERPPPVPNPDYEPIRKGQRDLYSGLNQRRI
T1 sequence (P04234 22-171, chain 2 of 3): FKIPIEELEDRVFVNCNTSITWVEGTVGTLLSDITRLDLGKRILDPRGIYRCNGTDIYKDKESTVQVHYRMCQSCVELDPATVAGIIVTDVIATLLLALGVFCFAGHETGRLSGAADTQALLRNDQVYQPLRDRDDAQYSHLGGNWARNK
T1 sequence (P09693 23-182, chain 3 of 3): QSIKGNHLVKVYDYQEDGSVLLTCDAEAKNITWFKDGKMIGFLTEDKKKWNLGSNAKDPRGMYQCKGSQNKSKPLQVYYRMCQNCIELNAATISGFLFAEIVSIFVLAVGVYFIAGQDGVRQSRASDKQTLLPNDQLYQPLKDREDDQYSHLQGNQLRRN

Row | Jurkat WT/KO (Fold) [fold] | Binder
1 | 0.8 | B1
2 | 9.3 | B2
3 | 0.8 | B3
4 | 11.2 | B4
5 | 1.7 | B5
6 | 1.1 | B6
7 | 0.9 | B7
8 | 10.5 | B8

molecular target: T1, human CD3 (TCR/CD3 complex on the cell …); experiment: flow cytometry, Jurkat WT gMFI over Jurkat KO gMFI, 10 ug/mL

Row | Jurkat WT/KO (Fold) [fold] | Binder
9 | 1.1 | B1
10 | 11.9 | B2
11 | 0.9 | B3
12 | 12.7 | B4
13 | 3.7 | B5
14 | 3.5 | B6
15 | 1 | B7
16 | 12.5 | B8

molecular target: T1, human CD3 (TCR/CD3 complex on the cell …); experiment: flow cytometry, Jurkat WT cells, 10 ug/mL

Row | gMFI [gMFI] | Binder
17 | 2190 | B1
18 | 39600 | B2
19 | 1940 | B3
20 | 47700 | B4
21 | 8450 | B5
22 | 7470 | B6
23 | 1670 | B7
24 | 39500 | B8

molecular target: T1, human CD3 (TCR/CD3 complex on the cell …); experiment: flow cytometry, Pan-T cells, 1 ug/mL

Row | % Positive [%] | gMFI [gMFI] | Binder
25 | 2.6 | 2050 | B1
26 | 99.5 | 240000 | B2
27 | 1.8 | 1910 | B3
28 | 99.8 | 197000 | B4
29 | 66.3 | 9270 | B5
30 | 8.2 | 3700 | B6
31 | 1.2 | 1810 | B7
32 | 99.7 | 112000 | B8

molecular target: T1, human CD3 (TCR/CD3 complex on the cell …); experiment: flow cytometry, Pan-T cells, 10 ug/mL

Row | % Positive [%] | gMFI [gMFI] | Binder
33 | 4.4 | 2600 | B1
34 | 99.5 | 348000 | B2
35 | 1.6 | 2150 | B3
36 | 99.6 | 278000 | B4
37 | 98.5 | 53000 | B5
38 | 95.8 | 17900 | B6
39 | 1.5 | 1830 | B7
40 | 99.8 | 232000 | B8

molecular target: T1, human CD3 (TCR/CD3 complex on the cell …); experiment: flow cytometry, Jurkat WT cells, 1 ug/mL

Row | gMFI [gMFI] | Binder
41 | 1830 | B1
42 | 30000 | B2
43 | 1780 | B3
44 | 43500 | B4
45 | 3890 | B5
46 | 2370 | B6
47 | 1660 | B7
48 | 33900 | B8
